The DeepSol protein solubility set

Test: soluble on expression in E. coli; label from the status in PepcDB or PDB records

Row | Sequence | soluble on expression in E. coli
1 | MSHFLVEKLTKTVGDKTVFQDISFIIHDFDRIGIIGVNGTGKTTLLDVLSGRLGFDGDHSPFSKANDYKIAYLTQDPEFNDAASVLDTVLSADVKAIQLIRQYELLMANYTEDKQESLESLMSEMDRLDAWSIESDVKTVLSKLGITDLEQKVGDLSGGMRRRVQLAQVLLGAADLLLLDEPTNHLDIDTIAWLTTYLKTAKKTVLFITHDRYFLDHVATRIFELDKAGLTEYQGNYQDYVRLKAEQDERDAANLHKKKQLYKQELAWMRTQPQARATKQQARINRFSDLKKEVHQDSSADKLEMTFETSRIGKKVIHFEDLSFAYGDRQLIKDFNLIIQNKDRIGIVGDNGVGKSTLLNIINGDLKPTSGKLDIGDTIRVGYFSQQLKDMDETKRVINYLQEVADEVKTSVGTTSISELLEQFLFPRSSHGTLIAKLSGGEKKRLYLLKLLIEKPNVLLLDEPTNDLDIATLKVLENFLANFAGPVITVSHDRYFLDKVATKILAFEEGDIRVFYGNYSDYLDEKVFEKETVEADLAKTTVTEEVPLPQKEERKRMSYLEKQEWAQIEDKIATIEANIEEIENQMLTVVSDYGQLAQLQKELDQRNNDLLLAYERFEYLSGLDI | not soluble
2 | MSHSIEQLSINTIRTLSIDAIEKANSGHPGMPMGAAPMAYTLWTQFMKHNPNNPTWFNRDRFVLSAGHGSMLLYSLLHLSGYDVTMDDLKNFRQWGSKTPGHPEYGHTAGVDATTGPLGQGIATAVGMAMAERHLAAKYNRDAYNIVDHYTYAICGDGDLMEGVSAEASSLAAHLQLGRLVVLYDSNDISLDGDLNRSFSESVEDRYKAYGWQVIRVEDGNDIEAIAKAIEEAKADEKRPTLIEVRTTIGFGSPNKSGKSASHGSPLGVEETKLTKEAYAWTAEQDFHVAEEVYENFRKTVQDVGETAQAEWNTMLGEYAQAYPELANELQAAMNGLLPEGWEQNLPTYELGSKAATRNSSGAVINAIAESVPSFFGGSADLAGSNKTYMNNEKDFTRDDYSGKNIWYGVREFAMGAAMNGIALHGGLKTYGGTFFVFSDYLRPAIRLAALMQLPVTYVFTHDSIAVGEDGPTHEPIEQLAALRAMPNVSVIRPADGNESVAAWRLALESTNKPTALVLTRQDLPTLEGAKDDTYEKVAKGAYVVSASKKETADVILLATGSEVSLAVEAQKALAVDGVDASVVSMPSMDRFEAQTAEYKESVLPKAVTKRFAIEMGATFGWHRYVGLEGDVLGIDTFGASAPGEKIMEEYGFTVENVVRKVKEML | not soluble
3 | MSHYDILQAPVISEKAYSAMERGVYSFWVSPKATKTEIKDAIQQAFGVRVIGISTMNVPGKRKRVGRFIGQRNDRKKAIVRLAEGQSIEALAGQA | soluble
4 | MSIDIKYLSRIDIDREEFFFKDSRLMCKKFDEEREVLTLLEFDTKFRVNLLKKDKVYKYFLVSDANHKLLIANLVTEQQAKDLSFIEKDIMKIASSATAYGASDIHFIREDRICKIKFRVNGTMIDYREILSSEADALMFVLYNVMATTKETTWNRKLPQDANIILVINEKAYRFRYAHMPLFGEGGKNYHAVVRIIYPSNNFVCTNYQDIGYNEADTDAIARILNTSYGLFIVSGTTGSGKSTSLKKYIELLFFNKYKGKGCFVTVEDPVEYLISGAQQSSIVADNDDKTKNPFADAVRSAMRRDPDVIMIGEIRDKPTVEALSSAVESGHYCLTTIHAGSVVSVLQRLSGLGMKADKIASPGFLAGITSQKLIPELCPSCKVSFVDERYQRAVFSANENGCEACNHSGFKGRLLLLETLVPTVEDLELVASENWVSLYRKYRERRFIKTGKKGLGEGFSIKDKAYYNVLKGKVCHEYFMLHFGQLDHEDENIIYENYLQEV | not soluble
5 | MSIHSASPIIRRKSRKIWVGNVPVGGDAPIAVQSMTNTETCDVAATVAQIRRLEDAGADIVRVSVPDMDAAEAFGKIKQQVNVPLVADIHFDYRIALRVAELGVDCLRINPGNIGREDRVKAVVDAARERNIPIRIGVNAGSLEKDLQKKYGEPTPEALLESAMRHVDHLDKLDFQNFKVSVKASDVFMAVAAYRLLARQIEQPLHLGITEAGGLRSGTVKSAVGLGMLLAEGIGDTIRISLAADPVEEIKVGFDILKSLHLRSRGINFIACPSCSRQNFDVVKTMNELEGRLEDLLVPMDVAVIGCVVNGPGEAKEAHVGLTGGTPNLVYIDGKPSQKLTNDNLVDELERLIRQKAAEKAEADASLIARG | not soluble
6 | MSIMKQRLPLGEFSSSKINKLAIANIADASEPRNHGENNVGTVCLPSIKSLMVSPEVYENTKSLPVPLMRSSGGGMACASKSSCQDGISTKTTSRDYSELSKKLQIRLQFAYYKYKTKQTDKNFTDLKSKHSITRPSKVATHSKSEPLTRRRKLVLSQGHYKTPARSKIKTPSSICSHDNTSSFTSFRGVSESSSTTADMNVADTTTPIRNNINTKHSNSHNRTLYQRQETPTSIKAAKSLIHLFTSNQ | not soluble
7 | MSITQYLTEEHRKCDQIYAEVEKAVNEGNWEKAKELFKEFKEKTLLHFKKEEEVLFPEFEQRTGIVMGPTQVMRMEHDQARELLERMEKALEEKNKDEFLSLGESLMILIQQHNMKEEQILYPMSDQNLNAEKMVSKMAELGEV | not soluble
8 | MSKDIRTVRPPVQLLPKAIIAVRPASTAKADLEVMAAQVAQLTTACCQENIQVDSIIITFGGIKDITKRVKQLTEQKDISYLIIYSGKQIAENESEYVNFKRDMQDWYYLKVVCYR | not soluble
9 | MSKGFAFKPSALAAKADKLWSDSKTEYTATHSTINHVHLEKKSLGDIIPKSADAPVANEKEVEEAPQAFVFGSKISDRVVNKEGDSTKPGGSDEKTMTATELFQNAVKKDDDKNGAKNFRKEAEQEAERAKEAEKQHAGTSSVEITTGEENDTNIFQAPCKIWAFDKLKNAYSEKGVCNLRINKRVENGLTHHRIVARTSSGTLRVIINSKIFSDMLLERVDKRIRISAMGPEISGVQIFLLKIGFTKTETIPDSDIFYNIMSDLLKLEKGENSRKRKADCDLNASTVKIKDGKEEEEGDQDQVDEGFVIVNKPTEDEVKEEKPAVTAAEESASSSTPSE | not soluble
10 | MSKIASEVVATTLNDWYIAIKKQKVDESIKYYSEIKKLFDEMEEDQEVLAYYSLLEERHKMLLHSSRGEPLQKHTYFTEDNQNFITKTNDKLEYNFYLFEAMYEAYNKNYDRAINLYGLAEKKLAEIPDEIEAAEFYSKVSYLYTLVKQSIVAQHYIKNAISIYKRHPDYKCKLATSTMIAAANYADMKRFEEAEQYYLEAIDIAKETKDEFLKAQLFHNLSIVYSDWNKPDKCIESLEKAIGNESWLHSIYYINSLFMMIKELFKIDEKMKAINFYNKAQERLILMENKVYEAKISILYNLYCGELKNNFNNCISNIEFLKQQNELESVDELSYIAAKRFESIGAFEEATSFFNAKIWAEQKMNQVEGIL | not soluble
11 | MSKKEETIFFRIEKENRPESSKKEEDENSTEEMTTLNHASVTLDHSAFAIADKDGFKMYQLNPLHFRMYKDYVIKVGPVRLVKQDGNSRRIIYVSALAGGRFAQNNLMIFDVARNEEYFEITTPSRYGPITNIHVSPNRLVALNPNRMFVWTYPDDIKQIRSEDIRSNPKGISAMSYDPTTAACYLAYPGFKTGSVQIMHLNALTARESKSPIVIEAHLTDIAQVALNCQGTLVATGSTKGTVIRVFDARTKGPLYELRRGTVQAHLQCMAFSPCSSYLAVASDKGTLHMFGIRDAEPQKKKNVLERSRGSSSIVKIQLDRPVMAIGFGKIPETPKNLQSIIAICADATYWRHEFYKDNTGNFTSHFGSYDELIEVANDSSFFRTPVE | not soluble
12 | MSKLKKKEYEQELKKLQVELVKLQEWVKHKGLKVVVLFEGRDAAGKGGVIKRITEKLNHRVCRVVALPAPTEKEKTQWYFQRYVAHLPSAGEIVLFDRSWYNRAGVEKVMGFCTPDEYEEFLRSCPEFERMLQRSGIILLKYWFSVSDEEQEKRFLGRINTPIKRWKFSPMDLESRHRWAEYSEAKDKMFAYTDTKNCPWWVVPSDSKQKARLNCISHLLSQIEYKALEYPPIELPEINKEGYVRAPIDDQTFVPDKY | not soluble
13 | MSKLRFRVVETAFKKKAVEVATPAERPSEYFGKYVFNKEKMFKYLPSKVYNALIDAIDNGAPLDRSIADEVAAGMKKWAVEMGVTHYTHWFAPLTEGTAEKHDAFVEHDGKGGMMEEFTGKLLVQQEPDASSFPNGGIRNTFEARGYSAWDPSSPAFIVDDTLCIPTVFIAYTGEALDYKAPLLKALRAVDKAATAVCHYFNPEVKKVVAYLGWEQEYFLVDEGLYAARPDLLMTGRTLMGHDSAKNQQLEDHYFGAIPTRVAAFMKDLEIEALKLGIPVKTRHNEVAPNQFELAPIFEECNLANDHNLLIMSLMRKVSRRHGFRVLLHEKPFKGVNGSGKHNNWSLGTDTGILLMGPGKTPEDNLRFVTFVVNTLMAVYRHNGLLKASISSATNAHRLGANEAPPAIISSFLGKQLSQVLDHIENSTKDDLINLSGKQGMKLDIPQIPELLIDNTDRNRTSPFAFTGNRFEFRAVGSEANCASAMIALNAAVAEQLMKFKKDVDALIEKGEPKVSAILEVIRGYIKECKAIHFDGNGYSDEWKVEAARRGLDCETSVPVIFDNYLKPETIAMFEAIGVMTKKELEARNEVKWETYTKKIQIEARVLGDLAMNHIIPVATQYQTDLINNVYKMQSLFPADKAARLSAKNLELIEEIADRTAFIKEHVDAMIEARKVANKIESEREKAIAYHDTIVPALEEIRYHIDKLELIVDNQMWTLPKYRELLFVR | soluble
14 | MSKLVYLLLMIFFLNPAWANTHYHQHPVSPLANALRTGTDTNGNALYLCRAKLFNSIQPGKTWAGYGRCNVPYGGKEYVLSQFTIPNQNEFGRYSWEPNVEHALLMGKDTNGNPLFVCQSNFNGSIQPGKTWPGYSHCNISYGGREIITDNYRILSRPTEIIVRTQPPVHRHPSQNRHYHYLEHHHHHH | soluble
15 | MSKNLTITHESTFNGNKVYIDKEGLVVEYLEGIESVLENALEQYARLFIVRVDLNLPTDFRGDDSAVMTRFFRSLKSQVAAYRRRSARLNRKPYRETTIRYVWAKECDTSTSSHYHVALIFDRNIFRSLGDFGEYQQSLANRIRNAWKRSVEAMYSGKEKPAIHFSKQGQYHLLRNSEEFGEVFQSVFYRLSYLAKRRTKHFGKRMNNFGHSHK | not soluble
16 | MSKQQEQDTPSFGEIRQRLQAGEDFDLAHRLQEREYEMYYNHNRNVNGTIVGDRKKTREEQIAEDEHAASLRRLGHAERSMSDEEYARQLQEEMDRLDASIQMDKEAQLREDARMAWLLQQESSATPAPSRHSGDLISFEDQPQQSSNTTTSSSCQSANNS | not soluble
17 | MSKRNTPQRRHNILALLNEQGEVSVDELAKRFETSEVTIRKDLAALESNGLLLRRYGGAITMPQELVSDIGQPVSLYKQAIARAAVQRIREHARIIIDSGSTTAAMIPELGLQPGLVVMTNSLNVANALSELEHEPVLLMTGGTWDPHSESFQGQVAEQVLRSYDFDQLFIGADGIDLARGTTTFNELLGLSRVMAEVAREVVVMVESDKIGRKIPNLELPWSSVHTLITDDRLPLEVRDQIQARGITLICAAVSLEHHHHHH | soluble
18 | MSKRYAVVLAAGQGTRMKSKLYKVLHPVCGKPMVEHVVDQISTLNVDKVVTIVGHGAEKVQEHLAGKSEFVKQDEQLGTAHAVLQAKAELAGKDGVTLVVCGDTPLIEASTMEALLKYHHEKRAKATILTTVIEDPTGYGRIIRDDLGIVEKIVEHKDATEKEQRISEINTGTYCFDNKALFEALENVSNDNVQGEYYLPDVIKILKDSDEVVAAYRMESFEESLGVNDRIALAEASKLMQRRINENHMRNGVTLVNPESTYIDIDVKIGQDTVIEPGVMLRGKTVIGDDCVVTSGSEIVNSVIGERVHVRTSSIFESKVGDDVQIGPYAHLRPESDIHDHVKIGNYVETKKAVVGEGTKLPHFIYMGDAEIGKNVNVGCGSIAVNYDGKNKAKTIIGDNVFVGCNSNLIAPVKVGDRAFIAAGSTITKDVPEDALGIARAKQDNKLGYAKHLNHSK | not soluble
19 | MSKSDLRMKSNADKVIANLKKMTPIAEKEGAAMVNDSLAKIYQLIVPMTPIKSGDLRRGYRIIKARKLSSGRIVGALINNEKYFRYVNDGHRTKNGGFVKGRFMLQKSNKLANATYIPKRFKQMAIIIVKKG | not soluble
